Measurements published in the supplement of paper PMC12042874.
± gives the uncertainty stated by the source.

Test: amyloid nucleation score (Sup35N fusion, yeast selection) (log enrichment); library NNK3; higher = more nucleation; inactive = no reads after selection
Method in brief: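 The nucleation score equals the log enrichment of output over input reads from DiMSum, centred on the mode score of non-aggregating sequences. It was computed only for sequences with 100 or more input reads. The reads came from Illumina sequencing of plasmid inserts from psi-negative yeast expressing Sup35N fused to peptides of 20 random codons, induced with 100 μM copper sulfate for 24 hours and grown 7 days at 30°C without adenine and uracil.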

Substance	amyloid nucleation score
GASLYWIP	0.234 ± 0.88
GCCFLVILWMKYDCYLGDQV	inactive
GCFDVPNCVSFQSFRACGKG	inactive
GCFSSSESTIWGGAVDAKVS	inactive
GCHLVSCRRTGAL	inactive
GCKLIEWDVLIVDPMPARGR	inactive
GCNHC	inactive
GCREICFNLCFKRSLTCALL	inactive
GCRNVVCVVDGFSVM	inactive
GCSWLFSSLCFLGDNALGST	inactive
GCYEGMLVIFLVFWLVVVYP	inactive
GDTAPNSSTISLTVFFPLFA	0.697 ± 0.21
GEDVGPCMTESCRYAYLRYT	inactive
GELPLRVKVKSFHTDTSLRT	inactive
GEMVFGVVWIVELETFCIPI	inactive
GFAYESQAA	inactive
GFFELYS	inactive
GFFFSLFYWNHFRGMTRQRF	0.973 ± 0.2
GFGESGNR	inactive
GFGQATTCLSLNSACF	0.544 ± 0.18
GFHLGFHGWNCKLAK	-0.349 ± 0.49
GFLESCENLVQFKRARWSNI	inactive
GFNVTWFEIYGGLEDSWWFC	inactive
GFRRRSMDALSVTVDSVVAP	inactive

Substance	amyloid nucleation score
GFRYALHSLIDR	inactive
GFRYSLLSSRSFYWHRSPSM	inactive
GFSYVVNYVFFTDVKNTAAL	2.17 ± 0.076
GFVNSVRFDLIECDVLKRSN	inactive
GGARL	inactive
GGCGGVKHAHYNTIEY	inactive
GGCGMDV	inactive
GGLHSGVGKMAYELNMYS	inactive
GGLYKYKNRTRLFMSWRVSR	inactive
GGNGVPRVWSVFIRRVWNSV	inactive
GGNLFSSVS	inactive
GGNVCRGVKIIVMWAMIFVM	inactive
GGSEGQSVPAC	-0.241 ± 1.5
GGSSYTYHNSVDLLDWFCYV	1.23 ± 0.11
GGSVWWY	inactive
GGTAHNIGCVSRLVMPARGI	inactive
GGWSARYTNCNLYYTEASGP	0.857 ± 0.18
GHIKWGNCSSYVSGFKLTCG	inactive
GHWTLDYEFKYPYGQQYHVP	inactive
GIASFECGDSCKSVN	inactive
GIFCGLTGLIDGMRTQHSEL	0.816 ± 0.12
GIGRDCNVSGALCQRAVANV	inactive
GIIMPKSRLVPTWTQSRSCC	inactive
GILCCAL	inactive

Substance	amyloid nucleation score
GIMVSWIVGFMLCSILRMGD	inactive
GINHNGRVECNRFKMNY	inactive
GISRYFYSMCETWMNCHSGV	0.793 ± 0.28
GIVRSVCYVNGCVLDHEVGI	inactive
GIVTLSA	inactive
GIYGRTGHSYVF	inactive
GIYRYVQGWHDAPHGGNCTE	inactive
GKDKLEGKEGGVSCDGNLRP	inactive
GKDSGDCTRIRLGV	1.2 ± 0.14
GKGCYLVVCDYTTCTKFLNM	inactive
GKKMKEGCSSNISIVELSRN	inactive
GKTNNLLSFFSKTPLTFSCL	inactive
GKYCLNDSCPFHY	inactive
GLCKS	inactive
GLDRI	inactive
GLDTAR	inactive
GLERLMDPLGNHRVRGDRVG	inactive
GLHLYEFRGRCNTSVDSQTK	inactive
GLKLCCV	inactive
GLKNV	-0.431 ± 0.8
GLLLVIFNGFGFNDYEEFGM	inactive
GLMLYTSMVGSYDDWPD	inactive
GLNMPLSFSPKRRHFVREWK	inactive
GLSHESTYKEEFESSATSGV	inactive

Substance	amyloid nucleation score
GLVVVT	inactive
GLVVWKNGINWLSEGVTIAR	0.567 ± 0.25
GLVWTW	-0.01 ± 0.48
GLVYNNIWISLYFNGATVES	2.08 ± 0.06
GMAEFALQWIRMIGRL	0.214 ± 0.45
GMAVVLSLAPAGRKRTTTNV	inactive
GMCWVDFVNNTASCVWFPLC	inactive
GMDCNKIRLASSWVYYLTSE	inactive
GMLGLMAGKNLEGADRL	inactive
GMRSLDMRWAGVMYVHRRRL	inactive
GMRSSLNIDAFGSGAELMHW	inactive
GMSSLIGIDMNLSEKFGYPY	inactive
GMVWFRFLKYAKC	-1.54 ± 2.4
GNCTSVLDPSELVVYHCEGS	inactive
GNFESVSDRKFSISFHCWHS	inactive
GNIAELVSGREVYNYVN	-0.075 ± 0.9
GNIEGVRNVVALTMHVVNWV	2.2 ± 0.091
GNITTRLHFFTNGFRPSFHG	inactive
GNNCPRVSIFNREAKIDNVL	inactive
GNTFLWCGRVDSYSTHSYLC	inactive
GNVQFCRFFFDMSSLHDIMT	inactive
GNVSCHFILGQRVHFPSCDF	0.809 ± 0.29
GPFVSFYFVFTRFNQTSLGF	1.57 ± 0.066
GPGNMAMNVRAVKSGYHIAG	inactive

Substance	amyloid nucleation score
GPIINVIS	inactive
GPSAGGFCQLRGVDVDV	inactive
GPSWVTHESRKCTCQARDKV	inactive
GPYHELCNHRL	inactive
GQFANPVK	inactive
GQPTICKDGYSMLLNEFSRS	inactive
GQVYMSVRV	inactive
GQWDYLLTQYKNIK	-1.01 ± 1.1
GRALNWTG	inactive
GRFKSGSLPFRRSGE	inactive
GRGSKLVCVR	2.63 ± 0.071
GRGYSSSTLWVLGWFD	inactive
GRISAKSVVTSWRGVGPYSV	inactive
GRIYFYLVKTDPVQERTQLF	inactive
GRKVCLSRPTRFNSFLWMVY	inactive
GRLINYSILKMVTVWFYLL	inactive
GRLIPREGT	inactive
GRNKSLYGIGLVRYVMLVSE	inactive
GRRMWCCREAHRSNDQV	1.28 ± 0.11
GRRYRKFDNTGGNSPK	inactive
GRSGYH	inactive
GRSSMFRINNQMLCWVSIPC	inactive
